The record followed here is the RNAGym collection of RNA variant scans (doi:10.7554/elife.90254).

B1: LINE1-full (parent)
chain: UACGUAGGUGGUUUUCCCCUGAUAGUGCUAAGGGGGCCUGGAAGUUUGGACUGGGCAGAGCUCAACACAGCGUGGCAAAGUGGCUGUGGCUAGACUGCCUCUCUGGAUUCCUCGUCACUCAGCAGGGCAUCUCUGAGAGAAAUGCC

The variants in this series derive from B1. Description: self-cleavage, relative activity (ratio to wild type); higher = more cleavage; in vitro, sequencing; the parent is a self-cleaving ribozyme.
Turning to G75C U119A, the self-cleavage amounted to 0.95. Then C76U A107U, with 2.27. Then A77G A142G, with 2.14; and G75C U134A, with 0.49. To A77U U130A belongs 1.01; to A77U U130C, 1.56.

On to A77U U108C, for which the self-cleavage worked out at 1.57. Consider G74U U102A, for which the self-cleavage turned out to be 1.79. Consider A78G G106U, for which the self-cleavage was 0.66. To A78C U96A belongs 0.14. To A78G U81A belongs 0.47; to A77G A140U, 2.21; to A77G A140G, 1.7. Then A77U U134G, with 1.47; and C76U U132C, with 1.8. Consider G75A A94G, for which the self-cleavage turned out to be 0.25.

In the case of G75A A94U, the self-cleavage worked out at 0.35. Then G74U U143C, with 1.48; and A77C U115A, with 1.28; and U73G A136G, with 1.84. To A78C C90U belongs 0.03; to A77G U143G, 2.99. To A77G U143A belongs 1.85. Regarding A77G U143C, the self-cleavage is 2.2. To A78G A92U belongs 0.64; to A78G A92G, 0.11; to A79C U108C, 2.12.

As for A78G C133U, the self-cleavage stood at 1.27. For the variant G75A U119C, the self-cleavage came to 1.5. To A77G A92G belongs 0.2; to A77G A92U, 1.11. To A77U C90U belongs 0.03; to A77U U104A, 0.58. Then U73C U104C, with 0.94; and U73C U104A, with 1.93; and U73C U104G, with 1.71.

As for A78G A138U, the self-cleavage worked out at 1. Consider A77G G106A, for which the self-cleavage stood at 2. In the case of A78G C111U, the self-cleavage came to 0.93. Then A78G G126U, with 1.75.

Consider A77U A136G, for which the self-cleavage was 1.19.

With A77U A136C, the self-cleavage worked out at 1.67. To G74U A117U belongs 1.79; to C76G A78G, 1.7.

In the case of U73C U81C, the self-cleavage stood at 1.47. Then G75A A117C, with 1.31; and C76U C95U, with 0.41. To A77G U81C belongs 2.1; to A77G U81A, 2.73. To A77U U119C belongs 1.58; to A77U C146A, 1.23.

Turning to A77U A129G, the self-cleavage came out at 1.45.

Consider A77U A129C, for which the self-cleavage was found to be 1.28. To A77G G114A belongs 2.27; to A78U A129G, 2.49; to G75A U100C, 1.5.

As to G75A U100A, the self-cleavage stood at 0.42. For the variant U73G A92G, the self-cleavage was determined as 0.36. To A78G C113U belongs 0.93; to G75A G135A, 1.18; to A78G U96C, 0.1.

For C76U U102C, the self-cleavage turned out to be 0.59. To G74A U115C belongs 1.46. To A78U A140G belongs 1.96; to A78U A140C, 2.32. In the case of G74A A136U, the self-cleavage is 0.91. Then A79C U100C, with 2.76; and G75A C123U, with 0.69. For the variant G74A A124U, the self-cleavage worked out at 1.22. Regarding A78G A79G, the self-cleavage came out at 1.14. To A77G A121U belongs 2.74; to G75A A129U, 1.13; to G75A A129G, 1.61. Consider G74U U112C, for which the self-cleavage came out at 1.64. To A79C U87A belongs 0.18; to A78G U102A, 1.24.

Take A77U A107G: the self-cleavage stood at 1.29.

Turning to A77U A107C, the self-cleavage was determined as 1.21. To A77C A78G belongs 1.63; to A77C U81C, 0; to A77U U100C, 1.58.

On to A77U U100A, for which the self-cleavage was determined as 0.91. To C76U A138G belongs 2.42.

As to U73G U119C, the self-cleavage worked out at 1.57. To G74A A141G belongs 0.97.

In the case of A78G U85C, the self-cleavage was found to be 0.11.

In the case of A78G U85G, the self-cleavage was 0.18. To A77C C116U belongs 1.04. In the case of G74C U132A, the self-cleavage stood at 1.46. To A77G C98U belongs 0.54. Then A77C U112C, with 1.84; and A78U U96C, with 0.17.

Regarding A77G G82A, the self-cleavage was found to be 0.85. To A77G G82U belongs 2.49; to A77U A79U, 1.89; to A78C A136G, 2.92. On to U73G, for which the self-cleavage worked out at 1.29. To A78U U87G belongs 0.23; to A77U A121U, 1.27. To A77C C128U belongs 1.67.

With A78U U132C, the self-cleavage is 1.92. To G74A U143A belongs 1.72; to G74A U143G, 2.27. With C76A U81G, the self-cleavage turned out to be 0.33. To C76A U81C belongs 1.46; to A79G A107U, 1.41; to G74U A94G, 0.15.

Turning to A78U U104G, the self-cleavage turned out to be 0.55. With G74A U87C, the self-cleavage was determined as 0.08. Turning to A77G U102C, the self-cleavage turned out to be 1.96. Then U73C G88U, with 0.13; and A77U U115A, with 0.82; and A78U U109A, with 1.84. To C76U U85C belongs 0.36; to A77G C84U, 0.25.

As for G74A A94G, the self-cleavage stood at 0.15. Then C76U G82A, with 2.8; and U73G U81G, with 1.05. Then G75U U115A, with 1.06; and U73G U109C, with 1.07. For the variant A78U G89A, the self-cleavage was 0.07.

In the case of A78U G89C, the self-cleavage was 0.08. To A79G A94U belongs 0.26; to G74A U119A, 0.84.

On to A77G A129U, for which the self-cleavage was determined as 2. Turning to A78G A117C, the self-cleavage was 1.69. Regarding A78G A117U, the self-cleavage stood at 1.6. Then C76U A142C, with 0.92; and A77U A94U, with 0.2.

As to A77G G80U, the self-cleavage was found to be 2.02.

Turning to A77G G80A, the self-cleavage amounted to 2.17. To G74A U85C belongs 0.06.

Consider A77G G135U, for which the self-cleavage was determined as 0.63. Then A78C U91C, with 1.24; and A78U A138U, with 2.15; and A78U A138G, with 2.06. Then U73C G127A, with 1.7; and G74A C113A, with 0.85; and A79G A124U, with 1.19. To G74A A77G belongs 1.35. Turning to U73G U104C, the self-cleavage amounted to 2. To A77G G127A belongs 2.11; to U73C G144A, 1.77; to G75A U112A, 0.91. Then U73G U115A, with 1.12; and A77U G126A, with 1.46; and A77G C99U, with 1.01.

Regarding A77U U109G, the self-cleavage was 0.61. To A77U U109A belongs 1.68. Then A78U A94G, with 0.46; and A78U A94U, with 0.3; and A78G C116A, with 0.87. To A79G A117U belongs 1.06. In the case of A77U G97A, the self-cleavage was determined as 0.07. To A77U G97U belongs 0.09; to G74A U100C, 1.62. Turning to C76U U104C, the self-cleavage worked out at 2.05.

As to G74A G144A, the self-cleavage was found to be 1.09. Consider A77G G126A, for which the self-cleavage is 2.42. To A77C U102C belongs 0; to U73G U108A, 1.33; to A77U A142G, 1.46. To U73G A77U belongs 1.14. As to A78G A141G, the self-cleavage was 1.38. To A78G A141U belongs 1.66; to A78G G105A, 1.8. To G75A U81C belongs 0.67.
